What was measured:
Test in all cases: A-204 reporter gene assay, pGL3(CAGA)12 luciferase
Type in all cases: cell-based
Settings in all cases: Example 13
[1] = target: T1, activin A (Homo sapiens, UniProt P08476)
T1 sequence (P08476 311-426): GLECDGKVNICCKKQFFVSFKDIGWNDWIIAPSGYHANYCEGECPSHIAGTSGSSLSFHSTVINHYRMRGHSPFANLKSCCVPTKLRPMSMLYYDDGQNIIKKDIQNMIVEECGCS
Excerpt: An A-204 reporter gene assay was used to evaluate the effects of ActRIIB-Fc proteins and GDF traps on signaling by GDF-11 and activin A. Cell line: human rhabdomyosarcoma (derived from muscle). Reporter vector: pGL3(CAGA)12 (described in Dennler et al, 1998, EMBO 17: 3091-3100). The CAGA12 motif is present in TGF-beta responsive genes (e.g., PAI-1 gene), so this vector is of general use for factors signaling through SMAD2 and 3.
Day 1: Split A-204 cells into 48-well plate.
Day 2: A-204 cells transfected with 10 ug pGL3(CAGA)12 or pGL3(CAGA)12(10 ug)+pRLCMV (1 μg) and Fugene.
Day 3: Add factors (diluted into medium+0.1% BSA). Inhibitors need to be preincubated with factors for 1 hr before adding to cells. Six hrs later, cells were rinsed with PBS and lysed.
This is followed by a luciferase assay.
(§1) In addition, an A-204 Reporter Gene Assay was used to evaluate the effects of ALK4-Fc:ActRIIB-Fc heterodimer and ActRIIB-Fc:ActRIIB-Fc homodimer on signaling by activin A, activin B, GDF11, GDF8, BMP10, and BMP9. Cell line: Human Rhabdomyosarcoma (derived from muscle). Reporter vector: pGL3(CAGA)12 (as described in Dennler et al, 1998, EMBO 17: 3091-3100). The CAGA12 motif is present in TGFβ responsive genes (PAI-1 gene), so this vector is of general use for factors signaling through Smad2 and 3. An exemplary A-204 Reporter Gene Assay is outlined below. • Day 1: Split A-204 cells into 48-well plate. • Day 2: A-204 cells transfected with 10 ug pGL3(CAGA)12 or pGL3(CAGA)12(10 ug)+pRLCMV (1 ug) and Fugene. • Day 3: Add factors (diluted into medium+0.1% BSA). Inhibitors need to be pre-incubated with Factors for about one hr before adding to cells. About six hrs later, cells are rinsed with PBS and then lysed.
(§2) Following the above steps, a Luciferase assay was performed.

[2] = target: T2, GDF8 (Homo sapiens, UniProt O14793); set-up: host or cells: exogenous factor added to A-204 cells (human rhabdomyosarcoma)
T2 sequence (O14793 267-375): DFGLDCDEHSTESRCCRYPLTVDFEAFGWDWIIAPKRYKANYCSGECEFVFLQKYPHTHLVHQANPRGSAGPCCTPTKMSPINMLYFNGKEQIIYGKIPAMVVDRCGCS
Excerpt: Day 1: Split A-204 cells into 48-well plate. […]
as §1, §2

[3] = target: T3, BMP10 (Homo sapiens, UniProt O95393); set-up: host or cells: exogenous factor added to A-204 cells (human rhabdomyosarcoma)
T3 sequence (O95393 317-424): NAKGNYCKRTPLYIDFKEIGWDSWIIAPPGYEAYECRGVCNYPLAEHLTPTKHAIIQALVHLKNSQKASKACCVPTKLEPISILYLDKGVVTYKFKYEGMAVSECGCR
Excerpt: as §1, §2

[4] = target: T4, BMP9 (Homo sapiens, UniProt Q9UK05); set-up: host or cells: exogenous factor added to A-204 cells (human rhabdomyosarcoma)
T4 sequence (Q9UK05 320-429): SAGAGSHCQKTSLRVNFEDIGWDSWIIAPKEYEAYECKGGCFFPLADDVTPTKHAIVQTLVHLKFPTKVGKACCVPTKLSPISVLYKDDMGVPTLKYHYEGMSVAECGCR
Excerpt: as §1, §2

[5] = target: T5, activin B (Homo sapiens, UniProt P09529); set-up: host or cells: exogenous factor added to A-204 cells (human rhabdomyosarcoma)
T5 sequence (P09529 293-407): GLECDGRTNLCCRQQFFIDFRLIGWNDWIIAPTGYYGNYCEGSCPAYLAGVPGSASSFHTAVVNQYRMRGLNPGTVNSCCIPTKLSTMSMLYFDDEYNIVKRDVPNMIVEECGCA
Excerpt: as §1, §2

B1: ALK4-Fc:ActRIIB-Fc heterodimer: heteromeric complex of extracellular domains of human ActRIIB and human ALK4, each separately fused to an Fc domain with a linker (protein)
chain 1: SGPRGVQALLCACTSCLQANYTCETDGACMVSIFNLDGMEHHVRTCIPKVELVPAGKPFYCLSSEDLRNTHCCYTDYCNRIDLRVPSGHLKEPEHPSMWGPVE
chain 2: GRGEAETRECIYYNANWELERTNQSGLERCEGEQDKRLHCYASWRNSSGTIELVKKGCWLDDFNCYDRQECVATEENPQVYFCCCEGNFCNERFTHLPEAGGPEVTYEPPPTAPT
modifications: left off: a dimerising Fc or GST; small tags and cut ends
notes: heteromeric complex of extracellular domains of human ActRIIB and human ALK4, each separately fused to an Fc domain with a linker
inhibition of activin A signaling [1]: potent inhibitors | inhibition of GDF8 signaling [2]: potent inhibitors | inhibition of BMP10 signaling pathway compared to ActRIIB-Fc:ActRIIB-Fc homodimer [3]: significantly reduced | inhibition of BMP9 signaling pathway compared to ActRIIB-Fc:ActRIIB-Fc homodimer [4]: significantly reduced | inhibition of activin B signaling [5]: potent inhibitors

— patent US10973880B2, “Compositions and methods for treating pulmonary hypertension” (Acceleron Pharma Inc., priority 2016, dated 2021)
